Test results reported in patent US20110172153A1 (GENERAL HOSPITAL, published 2011).
Square brackets hold non-standard residues; d marks the D form. Ends that are not written are not given here. hArg = N=C(N)NCCCC[C@H](N)C(=O)O; Aib = CC(C)(N)C(=O)O

Assays:
[1] = biological target: T1, rat parathyroid hormone receptor (PTHR) (rat, UniProt P25961 27-591); assay: cell-based or functional assay
T1 sequence: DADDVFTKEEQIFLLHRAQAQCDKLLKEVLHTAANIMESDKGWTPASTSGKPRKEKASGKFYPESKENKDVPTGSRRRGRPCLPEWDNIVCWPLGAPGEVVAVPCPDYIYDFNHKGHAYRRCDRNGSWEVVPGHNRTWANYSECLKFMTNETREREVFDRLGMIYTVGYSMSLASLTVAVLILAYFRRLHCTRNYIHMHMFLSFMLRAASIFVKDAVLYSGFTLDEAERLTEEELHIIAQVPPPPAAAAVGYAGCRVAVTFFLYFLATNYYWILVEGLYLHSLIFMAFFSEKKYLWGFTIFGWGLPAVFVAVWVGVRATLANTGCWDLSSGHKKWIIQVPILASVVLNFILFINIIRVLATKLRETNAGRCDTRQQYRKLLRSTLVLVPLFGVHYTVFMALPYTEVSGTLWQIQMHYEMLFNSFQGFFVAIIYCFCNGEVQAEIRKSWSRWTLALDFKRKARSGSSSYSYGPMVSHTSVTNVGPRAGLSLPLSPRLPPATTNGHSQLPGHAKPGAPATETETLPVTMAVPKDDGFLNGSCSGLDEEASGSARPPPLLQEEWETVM

[2] = biological target: T2, human parathyroid hormone receptor (PTHR) (human, UniProt Q03431 27-593); assay: competition radioligand binding, hPTHR R0 conformation
T2 construct: Assayed in membranes of HKRK-B7 cells or of transiently transfected COS-7 cells, or on intact HKRK-B7/HKRK-B64/COS-7 cells; RG = co-transfected with negative-dominant Galpha-s; R0 = receptor alone plus GTPgammaS; also called hPTHR; human PTH receptor
T2 sequence: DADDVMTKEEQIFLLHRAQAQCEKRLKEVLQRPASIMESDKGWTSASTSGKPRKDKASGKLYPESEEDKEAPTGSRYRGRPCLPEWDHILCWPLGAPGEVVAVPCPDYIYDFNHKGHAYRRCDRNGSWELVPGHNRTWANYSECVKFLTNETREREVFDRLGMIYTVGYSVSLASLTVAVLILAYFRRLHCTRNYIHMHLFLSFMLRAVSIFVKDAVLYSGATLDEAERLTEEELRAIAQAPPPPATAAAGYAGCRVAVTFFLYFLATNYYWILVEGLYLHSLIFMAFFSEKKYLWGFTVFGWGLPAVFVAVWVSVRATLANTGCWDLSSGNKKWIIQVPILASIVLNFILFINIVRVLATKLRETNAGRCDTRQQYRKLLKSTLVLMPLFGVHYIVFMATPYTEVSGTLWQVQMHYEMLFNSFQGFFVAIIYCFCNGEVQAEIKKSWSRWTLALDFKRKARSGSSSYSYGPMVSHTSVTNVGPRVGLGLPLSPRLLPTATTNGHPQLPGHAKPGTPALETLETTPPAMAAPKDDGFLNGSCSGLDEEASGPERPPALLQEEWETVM
Experimental: (§1) Binding Studies. Binding studies were performed using cell membranes as described (Dean et al., Mol Endocrinol 20(4):931-43 (2006)). […] Reactions contained a total membrane protein concentration of 20 to 100 μg/mL, and a total radioactivity concentration of approximately 150,000 cpm/ml. Unlabeled peptide ligands and/or GTPγS (Sigma-Aldrich Inc. St. Louis, Mo.) were added to the reactions as indicated. At the end of the reaction, bound and free radioligand were separated by vacuum filtration using a 96-well vacuum filter plate and vacuum filter apparatus (Multi-Screen system with Durapore HV, […] filters; Millipore Corp., Milford, Mass.); the air-dried filters were then detached from the plate and counted for gamma radioactivity using a gamma counter.
(§2) To assess the capacities of various unlabeled peptide ligands to bind to the G protein-uncoupled and G protein-coupled PTHR conformations (R⁰ and RG, respectively), membranes were prepared from transiently transfected COS-7 cells and the following assay conditions.

[3] = biological target: T2, human parathyroid hormone receptor …; assay: competition radioligand binding, hPTHR RG conformation
Experimental: as §1, §2

[4] = biological target: T2, human parathyroid hormone receptor …; assay: competition radioligand binding, human PIR R0
Experimental: as §1, §2

[5] = biological target: T2, human parathyroid hormone receptor …; assay: competition radioligand binding, human PIR RG
Experimental: as §1, §2

[6] = biological target: T2, human parathyroid hormone receptor …; assay: screen, binding to human PIR RG relative to parent PTHrP(1-28)NH; footnote not given
[7] = biological target: T2, human parathyroid hormone receptor …; assay: screen, binding to human PIR R0 relative to parent PTHrP(1-28)NH; footnote not given
[8] = biological target: T2, human parathyroid hormone receptor …; assay: cell-based or functional assay

| Binder | human PIR RG (% parent) [6] [% parent] | human PIR R0 (% parent) [7] [% parent] | also measured |
| --- | --- | --- | --- |
| SVSEIQLMHNLGKHLNSMERVEWLRKKL-NH2 [hPTH(1-28)NH2] |  |  | acute cAMP in ROS17/2.8 cells, EC50 (FIG. 21A) [1]: 7.6 nM; cAMP in ROS17/2.8 cells, EC50 [1]: 7.39 nM |
| AVSEHQLLHDKGKSIQDARRRAFLLKLIAE-NH2 [A18,22,L25,K26-PTHrP(1-30)NH] |  |  | IC50 [2]: 144 nM; IC50 [3]: 0.05 nM; IC50 [4]: 144 nM; IC50 [5]: 0.05 nM |
| WV[Aib]EIQLMHQ[hArg]AKWLNSMRRVEWLRKKL [Trp^1-M-PTH(1-28)] |  |  | IP3 formation, fold less potent than M-PTH(1-28) [1]: 100 fold |
| AVSEHQLLHDKGKSIQDARRRAFLHALI-NH2 [A18,22,26-PTHrP(1-28)NH] | 167 | 160 |  |
| AVSEHQLLHDKGKSIQDERRRLFLHKLI-NH2 [E18,L22,K26-PTHrP(1-28)NH] | 152 | 64.4 |  |
| AVSEHQLLHDKGKSIQDERRRLFLHALI-NH2 [E18,L22,A26-PTHrP(1-28)NH] | 125 | 52.5 |  |
| AVSEHQLLHDKGKSIQDERRRNFLHKLI-NH2 [E18,N22,K26-PTHrP(1-28)NH] | 147 | 84.4 |  |
| AVSEHQLLHDKGKSIQDARRRSFLHKLI-NH2 [A18,S22,K26-PTHrP(1-28)NH] | 175 | 15 |  |
| AVSEHQLLHDKGKSIQDERRRWFLHKLI-NH2 [E18,W22,K26-PTHrP(1-28)NH] | 149 | 46.6 |  |
| AVSEHQLLHDKGKSIQDERRRKFLHALI-NH2 [E18,K22,A26-PTHrP(1-28)NH] | 192 | 106 |  |
| AVSEHQLLHDKGKSIQDERRRSFLHALI-NH2 [E18,S22,A26-PTHrP(1-28)NH] | 132 | 31.9 |  |
| AVSEHQLLHDKGKSIQDERRRKFLHKLI-NH2 [E18,K22,26-PTHrP(1-28)NH] | 208 | 120 |  |
| AVSEHQLLHDKGKSIQDARRRNFLHALI-NH2 [A18,26,N22-PTHrP(1-28)NH] | 161 | 136 |  |
| AVSEHQLLHDKGKSIQDERRRSFLLKLI-NH2 [E18,S22,L25,K26-PTHrP(1-28)NH] |  |  | IC50 [4]: 2060 nM; IC50 [5]: 0.11 nM |
| AVSEHQLLHDKGKSIQDARRRSFLHALI-NH2 [A18,26,S22-PTHrP(1-28)NH] | 148 | 133 |  |
| AVSEHQLLHDKGKSIQDERRRNFLHALI-NH2 [E18,N22,A26-PTHrP(1-28)NH] | 140 | 53.7 |  |
| AVSEHQLLHDKGKSIQDARRRWFLHKLI-NH2 [A18,W22,K26-PTHrP(1-28)NH] | 115 | 136 |  |
| AVSEHQLLHDKGKSIQDERRRWFLHALI-NH2 [E18,W22,A26-PTHrP(1-28)NH] | 116 | 18.8 |  |
| AVSEHQLLHDKGKSIQDARRRLFLHKLI-NH2 [A18,L22,K26-PTHrP(1-28)NH] | 177 | 160 |  |
| AVSEHQLLHDKGKSIQDARRRWFLHALI-NH2 [A18,26,W22-PTHrP(1-28)NH] | 120 | 126 |  |
| AVSEHQLLHDKGKSIQDARRRSFLLKLI-NH2 [A18,S22,L25,K26-PTHrP(1-28)NH] |  |  | IC50 [4]: 540 nM; IC50 [5]: 0.1 nM |
| AVSEHQLLHDKGKSIQDARRRLFLHALI-NH2 [A18,26,L22-PTHrP(1-28)NH] | 163 | 133 |  |
| AVSEHQLLHDKGKSIQDARRRNFLHKLI-NH2 [A18,N22,K26-PTHrP(1-28)NH] | 172 | 139 |  |
| AV[Aib]EIQLMHQ[hArg]AKWLNSMRRVEWLRKKL-NH2 (N-terminus assumed; SMILES CC[C@H](C)[C@H](NC(=O)[C@H](CCC(=O)O)NC(=O)C(C)(C)NC(=O)[C@@H](NC(=O)[C@H](C)N)C(C)C)C(=O)N[C@@H](CCC(N)=O)C(=O)N[C@@H](CC(C)C)C(=O)N[C@@H](CCSC)C(=O)N[C@@H](Cc1c[nH]cn1)C(=O)N[C@@H](CCC(N)=O)C(=O)N[C@@H](CCCCNC(=N)N)C(=O)N[C@@H](C)C(=O)N[C@@H](CCCCN)C(=O)N[C@@H](Cc1c[nH]c2ccccc12)C(=O)N[C@@H](CC(C)C)C(=O)N[C@@H](CC(N)=O)C(=O)N[C@@H](CO)C(=O)N[C@@H](CCSC)C(=O)N[C@@H](CCCNC(=N)N)C(=O)N[C@@H](CCCNC(=N)N)C(=O)N[C@H](C(=O)N[C@@H](CCC(=O)O)C(=O)N[C@@H](Cc1c[nH]c2ccccc12)C(=O)N[C@@H](CC(C)C)C(=O)N[C@@H](CCCNC(=N)N)C(=O)N[C@@H](CCCCN)C(=O)N[C@@H](CCCCN)C(=O)N[C@@H](CC(C)C)C(N)=O)C(C)C) [[Ala^1,12,Aib^3,Gln^10,homoarginine^11,Trp^14,Arg^19]human(h)PTH(1-28)NH2] |  |  | acute cAMP in ROS17/2.8 cells, EC50 (FIG. 21A) [1]: 0.33 nM; cAMP in ROS17/2.8 cells, EC50 [1]: 0.37 nM |
| AVAEIQLMHQRAKWLNSMRRVEWLRKKLQDVHNF-OH [Mc-hPTH(1-34)OH] |  |  | cAMP in HKRK-B7 cells, EC50 [8]: 3.25 nM; cAMP in HKRK-B7 cells, Max [8]: 65.5 pm/well |
